Data reported in US20150197564A1 (Regeneron, published 2015).

Assays:
[1] = target: T1, hANGPTL3(17-460)-His (human, UniProt Q9Y5C1 17-460); test: SPR Biacore, antigen captured, 25C, pH 7.2, PBSP
T1 construct: Bought protein (R&D Systems); also called full-length mature human ANGPTL3 with a C-terminal decahistidine tag; Human ANGPTL3 (17-460)-His
T1 sequence: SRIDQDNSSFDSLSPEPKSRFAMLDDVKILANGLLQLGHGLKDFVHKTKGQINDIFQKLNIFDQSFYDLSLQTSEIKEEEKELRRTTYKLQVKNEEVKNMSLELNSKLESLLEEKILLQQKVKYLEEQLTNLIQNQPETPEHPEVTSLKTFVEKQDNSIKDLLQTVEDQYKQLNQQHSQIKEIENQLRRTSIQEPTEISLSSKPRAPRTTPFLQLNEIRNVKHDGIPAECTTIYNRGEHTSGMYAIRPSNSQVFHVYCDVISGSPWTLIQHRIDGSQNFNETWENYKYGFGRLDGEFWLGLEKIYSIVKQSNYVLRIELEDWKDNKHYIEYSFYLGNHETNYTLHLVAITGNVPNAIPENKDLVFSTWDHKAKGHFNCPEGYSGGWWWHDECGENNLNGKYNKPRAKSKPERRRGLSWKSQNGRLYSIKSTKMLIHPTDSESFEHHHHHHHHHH
Method: (§1) All kinetic binding experiments were performed at 25° C. or 37° C. on a BIACORE™ T200 label-free molecular interaction instrument (GE Healthcare) using a CM5 sensor chip. Briefly, an antigen capture surface was generated by covalently coupling either an anti-mouse IgG-specific antibody (anti-mFc; GE Healthcare; catalog #BR-1008-38) or an anti-pentahistidine-specific antibody (Qiagen; catalog #34660) to the surface of a CM5 sensor chip using a standard amine coupling method.

[2] = target: T2, hANGPTL3(17-170)-His (human, UniProt Q9Y5C1 17-170); test: SPR Biacore, antigen captured, 25C, pH 7.2, PBSP
T2 construct: also called N-terminal coiled-coil domain of hANGPTL3 with a C-terminal hexahistidine tag; Human ANGPTL3 (17-170)-His
T2 sequence: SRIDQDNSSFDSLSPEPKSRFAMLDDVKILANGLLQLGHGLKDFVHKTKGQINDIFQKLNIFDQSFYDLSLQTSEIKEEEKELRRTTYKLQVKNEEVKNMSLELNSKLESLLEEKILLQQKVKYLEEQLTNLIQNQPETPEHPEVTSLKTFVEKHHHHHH
Method: as §1

[3] = target: T3, MfANGPTL3(17-170)-mmH (Macaca fascicularis); test: SPR Biacore, antigen captured, 25C, pH 7.2, PBSP
T3 construct: also called N-terminal coiled-coil domain of ANGPTL3 from Macaca fascicularis with myc-myc-hexahistidine tag; Monkey ANGPTL3 (17-170)-mmH
T3 chain: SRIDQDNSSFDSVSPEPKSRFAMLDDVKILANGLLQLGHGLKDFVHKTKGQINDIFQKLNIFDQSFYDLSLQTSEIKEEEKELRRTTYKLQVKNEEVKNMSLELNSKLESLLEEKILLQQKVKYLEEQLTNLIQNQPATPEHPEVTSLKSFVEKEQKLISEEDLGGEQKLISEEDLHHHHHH
Method: as §1

[4] = target: T1, hANGPTL3(17-460)-His; test: SPR Biacore, antigen captured, 37C, pH 7.2, PBSP
Method: as §1

[5] = target: T3, MfANGPTL3(17-170)-mmH; test: SPR Biacore, antigen captured, 37C, pH 7.2, PBSP
Method: as §1

[6] = target: T1, hANGPTL3(17-460)-His; test: SPR Biacore, antigen captured, 37C, pH 5.75, PBSP
Method: as §1

[7] = target: T2, hANGPTL3(17-170)-His; test: SPR Biacore, antigen captured, 37C, pH 5.75, PBSP
Method: as §1

[8] = target: T3, MfANGPTL3(17-170)-mmH; test: SPR Biacore, antigen captured, 37C, pH 5.75, PBSP
Method: as §1

[9] = target: T1, hANGPTL3(17-460)-His; test: SPR Biacore, antigen captured, 25C, pH 7.4, HBS-EP
Method: as §1

[10] = target: T4, hANGPTL3(17-169)-mFc (human); test: SPR Biacore, antigen captured, 25C, pH 7.4, HBS-EP
T4 construct: also called N-terminal coiled-coil domain of hANGPTL3 with a C-terminal mouse Fc fusion
T4 chain: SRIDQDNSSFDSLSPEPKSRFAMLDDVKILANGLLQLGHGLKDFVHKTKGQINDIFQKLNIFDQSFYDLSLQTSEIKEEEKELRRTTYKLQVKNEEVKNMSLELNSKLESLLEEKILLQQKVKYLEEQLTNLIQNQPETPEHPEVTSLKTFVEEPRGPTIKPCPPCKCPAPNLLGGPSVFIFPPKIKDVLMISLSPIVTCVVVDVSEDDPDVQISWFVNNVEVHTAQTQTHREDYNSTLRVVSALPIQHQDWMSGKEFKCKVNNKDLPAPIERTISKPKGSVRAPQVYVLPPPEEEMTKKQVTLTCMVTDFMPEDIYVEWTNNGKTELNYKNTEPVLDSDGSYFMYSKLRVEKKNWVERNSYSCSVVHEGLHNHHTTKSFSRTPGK
Method: as §1

B1: H4H1276S (antibody, IgG4, V domains shown)
VH: EVQLVESGGGVIQPGGSLRLSCAASGFTFDDYAMNWVRQGPGKGLEWVSAISGDGGSTYYADSVKGRFTISRDNSKNSLYLQMNSLRAEDTAFFYCAKDLRNTIFGVVIPDAFDIWGQGTMVTVSS
VL: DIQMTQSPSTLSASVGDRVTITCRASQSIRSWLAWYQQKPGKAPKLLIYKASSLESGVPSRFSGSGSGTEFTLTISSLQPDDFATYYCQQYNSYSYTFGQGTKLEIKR
In the case of B1, the Kd [1] is reported as 0.67 nM, the koff [1] is reported as 0.000402 s⁻¹ and the kon [1] is reported as 599000 M⁻¹ s⁻¹. For the same binder, the t1/2 [1] was 28.8 min, the Kd [2] was 1.09 nM and the koff [2] was 0.0011 s⁻¹. The kon [2] was 1e+06 M⁻¹ s⁻¹, the t1/2 [2] was 10.5 min and the Kd [3] was 0.37 nM. It also gave a koff [3] of 0.000538 s⁻¹, a kon [3] of 1.45e+06 M⁻¹ s⁻¹ and a t1/2 [3] of 21.5 min. For the same binder, the Kd [4] was 1.76 nM, the koff [4] was 0.00118 s⁻¹ and the kon [4] was 667000 M⁻¹ s⁻¹. The t1/2 [4] was 9.8 min, the Kd [5] was 0.7 nM and the koff [5] was 0.00136 s⁻¹. The kon [5] was 1.94e+06 M⁻¹ s⁻¹, the t1/2 [5] was 8.5 min and the Kd [6] was 227 nM. It also gave a koff [6] of 0.0107 s⁻¹, a kon [6] of 47100 M⁻¹ s⁻¹ and a t1/2 [6] of 1.1 min. For the same binder, the Kd [7] was 26.7 nM, the koff [7] was 0.0324 s⁻¹ and the kon [7] was 1.22e+06 M⁻¹ s⁻¹. It also gave a t1/2 [7] of 0.4 min, a Kd [8] of 18.8 nM and a koff [8] of 0.00521 s⁻¹. It also gave a kon [8] of 278000 M⁻¹ s⁻¹, a t1/2 [8] of 2.2 min and a Kd [9] of 1.35 nM. For the same binder, the koff [9] was 0.000464 s⁻¹, the kon [9] was 344000 M⁻¹ s⁻¹ and the t1/2 [9] was 25 min. For the same binder, the Kd [10] was 0.659 nM, the koff [10] was 0.000383 s⁻¹ and the kon [10] was 582000 M⁻¹ s⁻¹. For the same binder, the t1/2 [10] was 30 min.
